Target: short cTag (s-cTag) on a CD8α stalk (human)
Assay: flow cytometry on cells; 293T cells transiently transfected with the mimic constructs (co-expressed EGFP), stained with APC-conjugated streptavidin 48 hr later; MedFI of EGFP-positive cells; staining of cTag8 293T cells reversed by 1 mM biotin, 1 hr, room temperature

Chain of streptavidin allophycocyanin (APC) (P22629 25-183): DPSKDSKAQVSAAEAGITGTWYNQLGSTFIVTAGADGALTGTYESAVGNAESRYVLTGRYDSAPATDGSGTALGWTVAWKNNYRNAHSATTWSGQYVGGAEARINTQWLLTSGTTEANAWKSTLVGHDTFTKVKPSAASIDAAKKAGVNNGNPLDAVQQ

## streptavidin allophycocyanin (APC) (from UniProt P22629 25-183) (natural protein)
  median fluorescence intensity (MedFI): 10000
